Results reported in patent publication US20140044730A1.

Columns and labels:
[1] = biological target: human PCSK9 with a C-terminal myc-myc-hexahistidine tag (human) (UniProt Q8NBP7); experiment: SPR (Biacore), 37 °C; antibody captured on anti-human Fc surface, hPCSK9-mmH injected (3.125-50 nM); association at pH 7.4, dissociation at pH 7.2
[2] = biological target: human PCSK9 with a C-terminal myc-myc-hexahistidine tag (human) (UniProt Q8NBP7); experiment: SPR 25C, purified mAb captured
[3] = biological target: human PCSK9 with a C-terminal myc-myc-hexahistidine tag (human) (UniProt Q8NBP7); experiment: blocking ELISA pH 5.75, 500 pM hPCSK9-mmH vs coated hLDLR EGFA-hFc
[4] = biological target: human PCSK9 with a C-terminal myc-myc-hexahistidine tag (human) (UniProt Q8NBP7); experiment: SPR (Biacore), 37 °C; antibody captured on anti-human Fc surface, hPCSK9-mmH injected (3.125-50 nM); association at pH 7.4, dissociation at pH 5.75
[5] = biological target: human PCSK9 with a C-terminal myc-myc-hexahistidine tag (human) (UniProt Q8NBP7); experiment: SPR 25C pH 6.0, purified mAb captured
[6] = biological target: human PCSK9 with a C-terminal myc-myc-hexahistidine tag (human) (UniProt Q8NBP7); experiment: SPR (Biacore), 37 °C; antibody captured on anti-human Fc surface, hPCSK9-mmH injected (3.125-50 nM); association at pH 7.4, dissociation at pH 6.0
[7] = biological target: human PCSK9 with a C-terminal myc-myc-hexahistidine tag (human) (UniProt Q8NBP7); experiment: blocking ELISA pH 7.2, 500 pM hPCSK9-mmH vs coated hLDLR EGFA-hFc
[8] = biological target: human PCSK9 with a C-terminal myc-myc-hexahistidine tag (human) (UniProt Q8NBP7); experiment: SPR 25C pH 7.4, purified mAb captured
[9] = biological target: human PCSK9 with a C-terminal myc-myc-hexahistidine tag (human) (UniProt Q8NBP7); experiment: SPR (Biacore), 37 °C; antibody captured on anti-human Fc surface, hPCSK9-mmH injected (3.125-50 nM); association at pH 7.4, dissociation at pH 7.4
[10] = biological target: human PCSK9 with a C-terminal myc-myc-hexahistidine tag (human) (UniProt Q8NBP7); experiment: blocking ELISA, hPCSK9-mmH vs coated hLDLR EGFA-hFc
[11] = biological target: recombinant cynomolgus monkey PCSK9 with a C-terminal myc-myc hexahistidine tag (cynomolgus monkey); experiment: cell-based or functional assay
[12] = biological target: human PCSK9 with a C-terminal myc-myc hexahistidine tag and a D374Y mutation (human) (UniProt Q8NBP7); experiment: cell-based or functional assay
[13] = biological target: human PCSK9 with a C-terminal myc-myc-hexahistidine tag (human) (UniProt Q8NBP7); experiment: cell-based or functional assay

t½ (dissociative half-life) [1]: 88.1 min
KD ratio pH 6.0/pH 7.4 [2]: 0.28
ka ratio pH 6.0/pH 7.4 [2]: 1.65
kd ratio pH 6.0/pH 7.4 [2]: 0.47
t½ ratio pH 6.0/pH 7.4 [2]: 2.15
IC50 [3]: 0.331 nM
t½ (dissociative half-life) [4]: 86.5 min
Kd [5]: 0.205 nM
koff [5]: 2.84e-05 s⁻¹
kon [5]: 138000 M⁻¹ s⁻¹
t½ [5]: 407 min
t½ (dissociative half-life) [6]: 71.5 min
IC50 [7]: 0.245 nM
Kd [8]: 0.728 nM
koff [8]: 6.09e-05 s⁻¹
kon [8]: 83600 M⁻¹ s⁻¹
t½ [8]: 190 min
t½ (dissociative half-life) [9]: 90.1 min
IC50 ratio (pH 5.75/pH 7.2) [10]: 1.3
IC50, LDL uptake in HepG2 cells, 50 nM MfPCSK9-mmH [11]: 10.4 nM
IC50, LDL uptake in HepG2 cells, 2 nM hPCSK9-D374Y-mmH [12]: 0.97 nM
IC50, LDL uptake in HepG2 cells, 50 nM hPCSK9-mmH [13]: 8.9 nM
B1: Comparator 7 (antibody, from another filing, IgG2, V domains shown)
VH: QVQLVQSGAEVKKPGASVKVSCKASGYTLTSYGISWVRQAPGQGLEWMGWVSFYNGNTNYAQKLQGRGTMTTDPSTSTAYMELRSLRSDDTAVYYCARGYGMDVWGQGTTVTVSS
VL: QSALTQPASVSGSPGQSITISCTGTSSDVGGYNSVSWYQQHPGKAPKLMIYEVSNRPSGVSNRFSGSKSGNTASLTISGLQAEDEADYYCNSYTSTSMVFGGGTKLTVLQ
